Assays:
[1] = TZM-bl pseudovirus neutralization; conditions: glycan lost; control: wild-type CAP45
[2] = TZM-bl pseudovirus neutralization, plateau; conditions: control: CAP45 pseudovirus grown normally in 293T

Row | Substance | other: neutralisation sensitivity [1] | other: neutralisation sensitivity ([2]; glycan changed form) | further results
1 | HIV-1 envelope glycoprotein (Env, gp160) CAP45: N276D | decreases |  | 
2 | HIV-1 envelope glycoprotein (Env, gp160) CAP45: 293S GnTI(-/-) cells |  | no change | 
3 | HIV-1 envelope glycoprotein (Env, gp160) CAP45: N611D | decreases |  | 
4 | HIV-1 envelope glycoprotein (Env, gp160) CAP45: kifunensine |  | no change | 
5 | HIV-1 envelope glycoprotein (Env, gp160) CAP45: benzyl 2-acetamido-2-deoxy-α-D-galactopyranoside |  |  | other: neutralisation sensitivity ([2]; glycan lost): no change
6 | HIV-1 envelope glycoprotein (Env, gp160) CAP45: N230D | no change |  | 
7 | HIV-1 envelope glycoprotein (Env, gp160) CAP45: N276A | abolishes |  | 
8 | HIV-1 envelope glycoprotein (Env, gp160) CAP45: swainsonine |  | no change | 

Source: article PMC5226681
